± gives the standard deviation of the averaged measurements.
What was measured:
[1] = system: hTERT-HMEC; test: percentage of EdU-negative (G0-arrested) nuclei per well, 72 h; higher = more G0 arrest; settings: reference: sequence is the full UniProt precursor, the tested protein was the secreted form or ectodomain
[2] = system: MCF7; test: as above; settings: reference: sequence is the full UniProt precursor, the tested protein was the secreted form or ectodomain
[3] = protein concentration 0.00975 µM
[4] = protein concentration 0.0975 µM
[5] = protein concentration 0.0225 µM
[6] = protein concentration 0.01775 µM
[7] = protein concentration 0.1775 µM
[8] = protein concentration 0.0322857 µM
[9] = protein concentration 0.322857 µM
[10] = protein concentration 0.00525 µM
[11] = protein concentration 0.0525 µM
[12] = protein concentration 0.0215 µM
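Note: secreted proteins added to cultured cells, EdU pulse at the end, nuclei found by Hoechst imaging, EdU status from nuclear versus surrounding ring intensity ratio, PBS as neutral control.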

| Sequence | percentage of EdU-negative [1, 5] [%] | percentage of EdU-negative ([1]; protein concentration 0.225 µM) [%] | percentage of EdU-negative [2, 5] [%] | percentage of EdU-negative ([2]; protein concentration 0.225 µM) [%] | further results |
| --- | --- | --- | --- | --- | --- |
| MASSWKLMLFLSVTMCLSEYSKSLPGLSTSYAALLRIKKSSSSSLFGSKTRPRYSSPSLGTLSASSPSWLGAAQNYYSPINLYHSSDAFKQDESVDYGPVFVQEPDDIIFPTDSDEKKVALNCEVRGNPVPSYRWLRNGTEIDLESDYRYSLIDGTFIISNPSEAKDSGHYQCLATNTVGSILSREATLQFAYLGNFSGRTRSAVSVREGQGVVLMCSPPPHSPEIIYSWVFNEFPSFVAEDSRRFISQETGNLYISKVQTSDVGSYICLVKNTVTNARVLSPPTPLTLRNDGVMGEYEPKIEVHFPFTVTAAKGTTVKMECFALGNPVPTITWMKVNGYIPSKARLRKSQAVLEIPNVQLDDAGIYECRAENSRGKNSFRGQLQVYTYPHWVEKLNDTQLDSGSPLRWECKATGKPRPTYRWLKNGVPLSPQSRVEMVNGVLMIHNVNQSDAGMYQCLAENKYGAIYASAELKILASAPTFALNQLKKTIIVTKDQEVVIECKPQGSPKPTISWKKGDRAVRENKRIAILPDGSLRILNASKSDEGKYVCRGENVFGSAEIIASLSVKEPTRIELTPKRTELTVGESIVLNCKAIHDASLDVTFYWTLKGQPIDFEEEGGHFESIRAQASSADLMIRNILLMHAGRYGCRVQTTADSVSDEAELLVRGPPGPPGIVIVEEITESTATLSWSPAADNHSPISSYNLQARSPFSLGWQTVKTVPEIITGDMESAMAVDLNPWVEYEFRVVATNPIGTGDPSTPSRMIRTNEAVPKTAPTNVSGRSGRRHELVIAWEPVSEEFQNGEGFGYIVAFRPNGTRGWKEKMVTSSEASKFIYRDESVPPLTPFEVKVGVYNNKGDGPFSQIVVICSAEGEPSAAPTDVKATSVSVSEILVAWKHIKESLGRPQGFEVGYWKDMEQEDTAETVKTRGNESFVILTGLEGNTLYHFTVRAYNGAGYGPPSSEVSATTKKSPPSQAPSNLRWEQQGSQVSLGWEPVIPLANESEVVGYKVFYRQEGHSNSQVIETQKLQAVVPLPDAGVYIIEVRAYSEGGDGTASSQIRVPSYSGGKITSAQSTLHSLSTSSSSVTLLLALMIPSTSW | – | – | – | – | percentage of EdU-negative [1, 3]: 4.88 ± 0.2%; percentage of EdU-negative [1, 4]: 10.4 ± 0.39%; percentage of EdU-negative [2, 3]: 26.6 ± 0.15%; percentage of EdU-negative [2, 4]: 27.7 ± 2.5% |
| MASTSYDYCRVPMEDGDKRCKLLLGIGILVLLIIVILGVPLIIFTIKANSEACRDGLRAVMECRNVTHLLQQELTEAQKGFQDVEAQAATCNHTVMALMASLDAEKAQGQKKVEELEGEITTLNHKLQDASAEVERLRRENQVLSVRIADKKYYPSSQDSSSAAAPQLLIVLLGLSALLQ | 4.74 ± 0.69 | 4.84 ± 0.58 | 26.3 ± 3.5 | 26.7 ± 3.2 | – |
| MASVVLPSGSQCAAAAAAAAPPGLRLRLLLLLFSAAALIPTGDGQNLFTKDVTVIEGEVATISCQVNKSDDSVIQLLNPNRQTIYFRDFRPLKDSRFQLLNFSSSELKVSLTNVSISDEGRYFCQLYTDPPQESYTTITVLVPPRNLMIDIQKDTAVEGEEIEVNCTAMASKPATTIRWFKGNTELKGKSEVEEWSDMYTVTSQLMLKVHKEDDGVPVICQVEHPAVTGNLQTQRYLEVQYKPQVHIQMTYPLQGLTREGDALELTCEAIGKPQPVMVTWVRVDDEMPQHAVLSGPNLFINNLNKTDNGTYRCEASNIVGKAHSDYMLYVYDPPTTIPPPTTTTTTTTTTTTTILTIITDSRAGEEGSIRAVDHAVIGGVVAVVVFAMLCLLIILGRYFARHKGTYFTHEAKGADDAADADTAIINAEGGQNNSEEKKEYFI [Q9BY67] | 4.74 ± 0.29 | 5.2 ± 0.79 | 24.5 ± 1.3 | 24.7 ± 1.1 | – |
| MASWLRRKLRGKRRPVIAFCLLMILSAMAVTRFPPQRPSAGPDPGPMEPQGVTGAPATHIRQALSSSRRQRARNMGFWRSRALPRNSILVCAEEQGHRARVDRSRESPGGDLRHPGRVRRDITLSGHPRLSTQHVVLLREDEVGDPGTKDLGHPQHGSPIQETQSEVVTLVSPLPGSDMAALPAWRATSGLTLWPHTAEGRDLLGAENRALTGGQQAEDPTLASGAHQWPGSVEKLQGSVWCDAETLLSSSRTGGQAPPWLTDHDVQMLRLLAQGEVVDKARVPAHGQVLQVGFSTEAALQDLSSPRLSQLCSQGLCGLIKRPGDLPEVLSFHVDRVLGLRRSLPAVARRFHSPLLPYRYTDGGARPVIWWAPDVQHLSDPDEDQNSLALGWLQYQALLAHSCNWPGQAPCPGIHHTEWARLALFDFLLQVHDRLDRYCCGFEPEPSDPCVEERLREKCQNPAELRLVHILVRSSDPSHLVYIDNAGNLQHPEDKLNFRLLEGIDGFPESAVKVLASGCLQNMLLKSLQMDPVFWESQGGAQGLKQVLQTLEQRGQVLLGHIQKHNLTLFRDEDP [Q9UFP1] | – | – | – | – | percentage of EdU-negative [1, 6]: 4.53 ± 0.69%; percentage of EdU-negative [1, 7]: 4.83 ± 0.99%; percentage of EdU-negative [2, 6]: 25.4 ± 2.1%; percentage of EdU-negative [2, 7]: 24.5 ± 4.3% |
| MASYLYGVLFAVGLCAPIYCVSPANAPSAYPRPSSTKSTPASQVYSLNTDFAFRLYRRLVLETPSQNIFFSPVSVSTSLAMLSLGAHSVTKTQILQGLGFNLTHTPESAIHQGFQHLVHSLTVPSKDLTLKMGSALFVKKELQLQANFLGNVKRLYEAEVFSTDFSNPSIAQARINSHVKKKTQGKVVDIIQGLDLLTAMVLVNHIFFKAKWEKPFHPEYTRKNFPFLVGEQVTVHVPMMHQKEQFAFGVDTELNCFVLQMDYKGDAVAFFVLPSKGKMRQLEQALSARTLRKWSHSLQKRWIEVFIPRFSISASYNLETILPKMGIQNVFDKNADFSGIAKRDSLQVSKATHKAVLDVSEEGTEATAATTTKFIVRSKDGPSYFTVSFNRTFLMMITNKATDGILFLGKVENPTKS [Q86WD7] | – | – | – | – | percentage of EdU-negative [1, 8]: 5.19 ± 0.14%; percentage of EdU-negative [1, 9]: 6.1 ± 0.46%; percentage of EdU-negative [2, 8]: 27.1 ± 1.6%; percentage of EdU-negative [2, 9]: 25.7 ± 0.86% |
| MATFISVQLKKTSEVDLAKPLVKFIQQTYPSGGEEQAQYCRAAEELSKLRRAAVGRPLDKHEGALETLLRYYDQICSIEPKFPFSENQICLTFTWKDAFDKGSLFGGSVKLALASLGYEKSCVLFNCAALASQIAAEQNLDNDEGLKIAAKHYQFASGAFLHIKETVLSALSREPTVDISPDTVGTLSLIMLAQAQEVFFLKATRDKMKDAIIAKLANQAADYFGDAFKQCQYKDTLPKEVFPVLAAKHCIMQANAEYHQSILAKQQKKFGEEIARLQHAAELIKTVASRYDEYVNVKDFSDKINRALAAAKKDNDFIYHDRVPDLKDLDPIGKATLVKSTPVNVPISQKFTDLFEKMVPVSVQQSLAAYNQRKADLVNRSIAQMREATTLANGVLASLNLPAAIEDVSGDTVPQSILTKSRSVIEQGGIQTVDQLIKELPELLQRNREILDESLRLLDEEEATDNDLRAKFKERWQRTPSNELYKPLRAEGTNFRTVLDKAVQADGQVKECYQSHRDTIVLLCKPEPELNAAIPSANPAKTMQGSEVVNVLKSLLSNLDEVKKEREGLENDLKSVNFDMTSKFLTALAQDGVINEEALSVTELDRVYGGLTTKVQESLKKQEGLLKNIQVSHQEFSKMKQSNNEANLREEVLKNLATAYDNFVELVANLKEGTKFYNELTEILVRFQNKCSDIVFARKTERDELLKDLQQSIAREPSAPSIPTPAYQSSPAGGHAPTPPTPAPRTMPPTKPQPPARPPPPVLPANRAPSATAPSPVGAGTAAPAPSQTPGSAPPPQAQGPPYPTYPGYPGYCQMPMPMGYNPYAYGQYNMPYPPVYHQSPGQAPYPGPQQPSYPFPQPPQQSYYPQQ [Q8WUM4] | – | – | – | – | percentage of EdU-negative [1, 10]: 4.68 ± 0.54%; percentage of EdU-negative [1, 11]: 4.872 ± 0.012%; percentage of EdU-negative [2, 10]: 24.7 ± 1.5%; percentage of EdU-negative [2, 11]: 25.1 ± 1% |
| MATHHTLWMGLALLGVLGDLQAAPEAQVSVQPNFQQDKFLGRWFSAGLASNSSWLREKKAALSMCKSVVAPATDGGLNLTSTFLRKNQCETRTMLLQPAGSLGSYSYRSPHWGSTYSVSVVETDYDQYALLYSQGSKGPGEDFRMATLYSRTQTPRAELKEKFTAFCKAQGFTEDTIVFLPQTDKCMTEQ | 4.95 ± 1.2 | 7.39 ± 0.34 | 27.3 ± 2.4 | 25.1 ± 1.9 | – |
| MATMENKVICALVLVSMLALGTLAEAQTETCTVAPRERQNCGFPGVTPSQCANKGCCFDDTVRGVPWCFYPNTIDVPPEEECEF | – | – | – | – | percentage of EdU-negative [1, 12]: 4.62 ± 0.35%; percentage of EdU-negative ([1]; protein concentration 0.215 µM): 5.31 ± 0.26%; percentage of EdU-negative [2, 12]: 25.09 ± 0.25%; percentage of EdU-negative ([2]; protein concentration 0.215 µM): 25 ± 1.6% |
| MATMVPSVLWPRACWTLLVCCLLTPGVQGQEFLLRVEPQNPVLSAGGSLFVNCSTDCPSSEKIALETSLSKELVASGMGWAAFNLSNVTGNSRILCSVYCNGSQITGSSNITVYRLPERVELAPLPPWQPVGQNFTLRCQVEDGSPRTSLTVVLLRWEEELSRQPAVEEPAEVTATVLASRDDHGAPFSCRTELDMQPQGLGLFVNTSAPRQLRTFVLPVTPPRLVAPRFLEVETSWPVDCTLDGLFPASEAQVYLALGDQMLNATVMNHGDTLTATATATARADQEGAREIVCNVTLGGERREARENLTVFSFLGPIVNLSEPTAHEGSTVTVSCMAGARVQVTLDGVPAAAPGQPAQLQLNATESDDGRSFFCSATLEVDGEFLHRNSSVQLRVLYGPKIDRATCPQHLKWKDKTRHVLQCQARGNPYPELRCLKEGSSREVPVGIPFFVNVTHNGTYQCQASSSRGKYTLVVVMDIEAGSSHFVPVFVAVLLTLGVVTIVLALMYVFREHQRSGSYHVREESTYLPLTSMQPTEAMGEEPSRAE | 4.98 ± 0.59 | 16.4 ± 1.8 | 25.2 ± 0.75 | 28 ± 1.2 | – |
| MATSMGLLLLLLLLLTQPGAGTGADTEAVVCVGTACYTAHSGKLSAAEAQNHCNQNGGNLATVKSKEEAQHVQRVLAQLLRREAALTARMSKFWIGLQREKGKCLDPSLPLKGFSWVGGGEDTPYSNWHKELRNSCISKRCVSLLLDLSQPLLPSRLPKWSEGPCGSPGSPGSNIEGFVCKFSFKGMCRPLALGGPGQVTYTTPFQTTSSSLEAVPFASAANVACGEGDKDETQSHYFLCKEKAPDVFDWGSSGPLCVSPKYGCNFNNGGCHQDCFEGGDGSFLCGCRPGFRLLDDLVTCASRNPCSSSPCRGGATCVLGPHGKNYTCRCPQGYQLDSSQLDCVDVDECQDSPCAQECVNTPGGFRCECWVGYEPGGPGEGACQDVDECALGRSPCAQGCTNTDGSFHCSCEEGYVLAGEDGTQCQDVDECVGPGGPLCDSLCFNTQGSFHCGCLPGWVLAPNGVSCTMGPVSLGPPSGPPDEEDKGEKEGSTVPRAATASPTRGPEGTPKATPTTSRPSLSSDAPITSAPLKMLAPSGSPGVWREPSIHHATAASGPQEPAGGDSSVATQNNDGTDGQKLLLFYILGTVVAILLLLALALGLLVYRKRRAKREEKKEKKPQNAADSYSWVPERAESRAMENQYSPTPGTDC [Q9NPY3] | 5.36 ± 0.65 | 4.92 ± 0.54 | 25.7 ± 0.77 | 26.9 ± 0.77 | – |
| MAVAAAAAAAGPAGAGGGRAQRSGLLEVLVRDRWHKVLVNLSEDALVLSSEEGAAAYNGIGTATNGSFCRGAGAGHPGAGGAQPPDSPAGVRTAFTDLPEQVPESISNQKRGVKVLKQELGGLGISIKGGKENKMPILISKIFKGLAADQTQALYVGDAILSVNGADLRDATHDEAVQALKRAGKEVLLEVKYMREATPYVKKGSPVSEIGWETPPPESPRLGGSTSDPPSSQSFSFHRDRKSIPLKMCYVTRSMALADPENRQLEIHSPDAKHTVILRSKDSATAQAWFSAIHSNVNDLLTRVIAEVREQLGKTGIAGSREIRHLGWLAEKVPGESKKQWKPALVVLTEKDLLIYDSMPRRKEAWFSPVHTYPLLATRLVHSGPGKGSPQAGVDLSFATRTGTRQGIETHLFRAETSRDLSHWTRSIVQGCHNSAELIAEISTACTYKNQECRLTIHYENGFSITTEPQEGAFPKTIIQSPYEKLKMSSDDGIRMLYLDFGGKDGEIQLDLHSCPKPIVFIIHSFLSAKITRLGLVA | 4.71 ± 0.2 | 6.28 ± 0.64 | 27.8 ± 2.2 | 25.6 ± 0.97 | – |
